Test results as given in US20150203577A1 (Chugai, published 2015).
Changes are numbered by the printed parent chain.

T1: mouse FcγRII extracellular domain with C-terminal His tag (mouse, UniProt P08101 30-210)
T1 construct: Made on the basis of NCBI NP-034317.1; also called mFcγRII; mFcgRII
T1 sequence: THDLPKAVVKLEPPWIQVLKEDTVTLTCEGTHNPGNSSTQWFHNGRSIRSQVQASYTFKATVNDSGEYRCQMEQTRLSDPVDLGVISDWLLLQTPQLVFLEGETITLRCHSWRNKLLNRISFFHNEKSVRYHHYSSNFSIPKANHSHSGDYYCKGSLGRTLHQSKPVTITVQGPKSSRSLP

T2: mouse FcγRIII extracellular domain with C-terminal His tag (mouse, UniProt P08508 31-215)
T2 construct: Made on the basis of NCBI NP-034318.2; also called mFcγRIII; mFcgRIII
T2 chain: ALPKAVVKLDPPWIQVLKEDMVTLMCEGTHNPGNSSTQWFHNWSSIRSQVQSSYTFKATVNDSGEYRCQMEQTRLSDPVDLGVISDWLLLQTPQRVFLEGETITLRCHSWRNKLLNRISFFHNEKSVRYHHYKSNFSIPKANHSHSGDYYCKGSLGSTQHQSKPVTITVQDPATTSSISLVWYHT

B1: H237-MB381/MRAL-k0 (antibody, mouse IgG1, kappa)
heavy: QVQLQESGPGLVKPSETLSLTCAVSGHSISHDHAWSWVRQPPGEGLEWIGFISYSGITNYNPSLQGRVTISRDNSKNTLYLQMNSLRAEDTAVYYCARSLARTTAMDYWGEGTLVTVSSAKTTPPSVYPLAPGSAAQTNSMVTLGCLVKGYFPEPVTVTWNSGSLSSGVHTFPAVLQSDLYTLSSSVTVPSSTWPSETVTCNVAHPASSTKVDKKIVPRDCGCKPCICEDNEVEDVFIFPPKPKDVLTITLTPKVTCVVVDISKDDPEVQFSWFVDDVEVHTAQTQPREEQFNSTFRSVSELPIMHQDWLNGKEFKCRVNSAAFPAPIEKTISKTKGRPKAPQVYTIPPPKEQMAKDKVSLTCMITDFFPEDITVEWQWNGQPAENYKNTQPIMDTDGSYFVYSKLNVQKSNWEAGNTFTCSVLHEGLHNHHTEKSLSHSPGK
light: not shown
notes: copies: 2 + 2
B2: H237-MB398/MRAL-k0 (antibody, mouse IgG1, kappa)
heavy: B1 heavy with D230W, N231P
light: not shown
notes: copies: 2 + 2
B3: H237-MB388/MRAL-k0 (antibody, mouse IgG1, kappa)
heavy: B1 heavy with D230P, N231P
light: not shown
notes: copies: 2 + 2
B4: H237-MB402/MRAL-k0 (antibody, mouse IgG1, kappa)
heavy: B1 heavy with D230W, N231Y
light: not shown
notes: copies: 2 + 2
B5: H237-MB407/MRAL-k0 (antibody, mouse IgG1, kappa)
heavy: B1 heavy with E229Q, D230A, N231Y
light: not shown
notes: copies: 2 + 2
B6: H237-MB411/MRAL-k0 (antibody, mouse IgG1, kappa)
heavy: B1 heavy with E229P, D230V, N231Y
light: not shown
notes: copies: 2 + 2
B7: H237-MB412/MRAL-k0 (antibody, mouse IgG1, kappa)
heavy: B1 heavy with E229Q, D230V, N231Y
light: not shown
notes: copies: 2 + 2
B8: H237-MB405/MRAL-k0 (antibody, mouse IgG1, kappa)
heavy: B1 heavy with E229I, D230A, N231Y
light: not shown
notes: copies: 2 + 2
B9: H237-MB399/MRAL-k0 (antibody, mouse IgG1, kappa)
heavy: B1 heavy with D230W, N231A
light: not shown
notes: copies: 2 + 2
B10: H237-MB392/MRAL-k0 (antibody, mouse IgG1, kappa)
heavy: B1 heavy with D230P, N231Y
light: not shown
notes: copies: 2 + 2
B11: H237-MB395/MRAL-k0 (antibody, mouse IgG1, kappa)
heavy: B1 heavy with D230T
light: not shown
notes: copies: 2 + 2
B12: H237-MB400/MRAL-k0 (antibody, mouse IgG1, kappa)
heavy: B1 heavy with D230W
light: not shown
notes: copies: 2 + 2
B13: H237-MB413/MRAL-k0 (antibody, mouse IgG1, kappa)
heavy: B1 heavy with E229T, D230V, N231Y
light: not shown
notes: copies: 2 + 2
B14: H237-MB394/MRAL-k0 (antibody)
heavy: B1 heavy with D230T, N231A
light: not shown
notes: Printed M8394, read as MB394; also called M8394; copies: 2 + 2
B15: H237-MB409/MRAL-k0 (antibody, mouse IgG1, kappa)
heavy: B1 heavy with E229D, D230V, N231Y
light: not shown
notes: copies: 2 + 2
B16: H237-MB408/MRAL-k0 (antibody, mouse IgG1, kappa)
heavy: B1 heavy with E229T, D230A, N231Y
light: not shown
notes: copies: 2 + 2
B17: H237-MB415/MRAL-k0 (antibody, mouse IgG1, kappa)
heavy: B1 heavy with E229I, N231Y
light: not shown
notes: copies: 2 + 2
B18: H237-MB404/MRAL-k0 (antibody, mouse IgG1, kappa)
heavy: B1 heavy with E229D, D230A, N231Y
light: not shown
notes: also called M8404; copies: 2 + 2
B19: H237-MB383/MRAL-k0 (antibody, mouse IgG1, kappa)
heavy: B1 heavy with D230N, N231P
light: not shown
notes: copies: 2 + 2
B20: H237-MB396/MRAL-k0 (antibody, mouse IgG1, kappa)
heavy: B1 heavy with D230T, N231W
light: not shown
notes: copies: 2 + 2
B21: H237-MB386/MRAL-k0 (antibody, mouse IgG1, kappa)
heavy: B1 heavy with D230N, N231W
light: not shown
notes: copies: 2 + 2
B22: H237-MB391/MRAL-k0 (antibody, mouse IgG1, kappa)
heavy: B1 heavy with D230P, N231W
light: not shown
notes: copies: 2 + 2
B23: H237-MB406/MRAL-k0 (antibody, mouse IgG1, kappa)
heavy: B1 heavy with E229P, D230A, N231Y
light: not shown
notes: copies: 2 + 2
B24: H237-MB385/MRAL-k0 (antibody, mouse IgG1, kappa)
heavy: B1 heavy with D230N
light: not shown
notes: copies: 2 + 2
B25: H237-MB393/MRAL-k0 (antibody, mouse IgG1, kappa)
heavy: B1 heavy with D230T, N231P
light: not shown
notes: copies: 2 + 2
B26: H237-MB414/MRAL-k0 (antibody, mouse IgG1, kappa)
heavy: B1 heavy with E229D, N231Y
light: not shown
notes: copies: 2 + 2
B27: H237-MB401/MRAL-k0 (antibody, mouse IgG1, kappa)
heavy: B1 heavy with D230W, N231W
light: not shown
notes: copies: 2 + 2
B28: H237-MB384/MRAL-k0 (antibody, mouse IgG1, kappa)
heavy: B1 heavy with D230N, N231A
light: not shown
notes: copies: 2 + 2

target: T1, mouse FcγRII extracellular domain with …; test: SPR Biacore T200
Protocol: (§1) Each altered antibody was analyzed for its interaction with each Fcγ receptor prepared above using Biacore T100 (GE Healthcare Japan Corp.), Biacore T200 (GE Healthcare Japan Corp.), Biacore A100, or Biacore 4000. The running buffer used was HBS-EP+ (GE Healthcare Japan Corp.). The assay temperature was set to 25° C. The sensor chips used were chips prepared by immobilizing Protein L (ACTIGEN or BioVision) onto Series S Sensor Chip CM5 (GE Healthcare Japan Corp.) or Series S Sensor Chip CM4 (GE Healthcare Japan Corp.) by the amine coupling method.
(§2) In order to calculate the KD value of each altered antibody for FcγR, kinetic analysis was conducted according to the following method: first, the antibody of interest was captured onto any of these chips and allowed to interact with mFcγR diluted with a running buffer. For the obtained sensorgram, the assay results were globally fit into the 1:1 Langmuir binding model using Biacore Evaluation Software to calculate an association rate constant ka (L/mol/s) and a dissociation rate constant kd (1/s). From these values, the dissociation constant KD (mol/L) was calculated.

Binder | relative mFcγRII-binding activity (mIgG1 = 1) | Kd [nM]
B1 | 93.5 | 
B2 | 45.8 | 
B3 | 277 | 0.757
B4 | 208 | 1.01
B5 | 164 | 
B6 | 132 | 
B7 | 113 | 
B8 | 146 | 
B9 | 71.8 | 
B10 | 257 | 0.817
B11 | 154 | 
B12 | 81.7 | 
B13 | 108 | 
B14 | 134 | 
B15 | 192 | 
B16 | 163 | 
B17 | 159 | 
B18 | 236 | 0.891
B19 | 106 | 
B20 | 297 | 0.707
B21 | 268 | 0.784
B22 | 281 | 0.747
B23 | 191 | 
B24 | 152 | 
B25 | 89.9 | 
B26 | 189 | 
B27 | 162 | 
B28 | 125 | 

Target: T2, mouse FcγRIII extracellular domain with …
Test: SPR Biacore T200
Protocol: as §1, §2

Binder | relative mFcγRIII-binding activity (mIgG1 = 1) | Kd [nM]
B1 | 5.7 | 
B2 | 3.5 | 
B3 | 10.8 | 26.2
B4 | 12 | 23.6
B5 | 9.8 | 
B6 | 8.1 | 
B7 | 8.3 | 
B8 | 8 | 
B9 | 3.9 | 
B10 | 14.5 | 19.5
B11 | 8.2 | 
B12 | 5.5 | 
B13 | 11.9 | 
B14 | 7.5 | 
B15 | 10.7 | 
B16 | 13.1 | 
B17 | 9.1 | 
B18 | 8.6 | 33
B19 | 5.4 | 
B20 | 17.9 | 15.8
B21 | 14.5 | 19.5
B22 | 10.9 | 25.9
B23 | 6.5 | 
B24 | 7.9 | 
B25 | 5.6 | 
B26 | 8.1 | 
B27 | 6.9 | 
B28 | 6.3 | 

target: T1, mouse FcγRII extracellular domain with …; test: SPR Biacore T200; KD mFcγRIII / KD mFcγRII
Protocol: as §1, §2

Binder | relative I/A (mFcγRII selectivity) (mIgG1 = 1) | I/A (mFcγRII selectivity)
B1 | 16.5 | 
B2 | 13 | 
B3 | 25.9 | 34.6
B4 | 17.4 | 23.3
B5 | 16.9 | 
B6 | 16.4 | 
B7 | 13.7 | 
B8 | 18.2 | 
B9 | 18.2 | 
B10 | 17.8 | 23.9
B11 | 18.7 | 
B12 | 15 | 
B13 | 9.1 | 
B14 | 17.8 | 
B15 | 18 | 
B16 | 12.5 | 
B17 | 17.5 | 
B18 | 27.6 | 37
B19 | 19.6 | 
B20 | 16.6 | 22.3
B21 | 18.6 | 24.9
B22 | 25.9 | 34.7
B23 | 29.6 | 
B24 | 19.2 | 
B25 | 16 | 
B26 | 23.6 | 
B27 | 23.7 | 
B28 | 19.8 | 
